The target in this experiment is T1, recombinant human RANK-hFc fusion protein (human, UniProt Q9Y6Q6 30-212, limits assumed).
T1 construct: also called hRANK; not shown: human Fc (hFc)
T1 sequence (looked up): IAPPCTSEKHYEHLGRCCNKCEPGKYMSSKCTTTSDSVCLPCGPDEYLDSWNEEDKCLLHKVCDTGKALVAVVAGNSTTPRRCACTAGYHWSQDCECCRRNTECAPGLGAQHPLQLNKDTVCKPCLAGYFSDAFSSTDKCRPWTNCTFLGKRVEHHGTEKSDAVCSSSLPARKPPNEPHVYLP
In words: ELISA, human RANKL coated at 10 µg/ml, anti-hFc-HRP detection. On the procedure: To test whether the antibodies generated in mice have neutralizing activity, in vitro binding assays for both mouse and human RANKL and their cognate receptors mouse RANK and human RANK were established. ELISA plates were therefore coated with 10 μg/ml of either mouse or human RANKL protein and incubated with serial dilutions of a recombinant mouse RANK-hFc fusion protein or a recombinant human RANK-hFc fusion protein, respectively. Bound protein was detected with a horse raddish peroxidase conjugated anti-hFc antibody. […] ELISA plates were therefore coated with either mouse or human RANKL protein at a concentration of 10 μg/ml, and co-incubated with serial dilutions of a pool of mouse sera from day 35 and 0.35 nM mouse or human RANK-hFc fusion protein, respectively. Binding of receptor to immobilized RANKL protein was detected with horse raddish peroxidase conjugated anti-hFc antibody.

We go through 1 molecule from patent publication US20080019991A1 (CYTOS BIOTECHNOLOGY, published 2008).

B1: human RANKL protein (ligand, UniProt O14788 140-317, looked up)
chain: IRAEKAMVDGSWLDLAKRSKLEAQPFAHLTINATDIPSGSHKVSLSSWYHDRGWAKISNMTFSNGKLIVNQDGFYYLYANICFRHHETSGDLATEYLQLMVYVTKTSIKIPSSHTLMKGGSTKYWSGNSEFHFYSINVGGFFKLRSGEEISIEVSNPSLLDPDQDATYFGAFKVRDID
notes: Coated on ELISA plates; also called hRANKL
For the molecule B1, the binding result is reported as “binds”.
